Target: P-GltPh (S279E/D405N) (UniProt O59010)
Assay: cryo-EM structure

Substance: P-GltPh (S279E/D405N) (from UniProt O59010 1-417) (natural protein)
- stoichiometry N: 3

Reference: doi:10.1101/2021.07.08.451670
